Assay results from the supplement of paper PMC10567573.

B1: BRF1 (parent)
chain: CTACGSVLEDNIIVSEVQFVESSG

Variants of: B1
Assay: protein stability index of a GFP-peptide fusion (GPS, HEK-293T) (PSI 1-6); higher = more stable
Settings: c terminus: a fixed tail appended
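Further: lentivirally expressed fusions sorted by FACS into six bins by GFP to DsRed ratio, PSI derived from sequencing read proportions per bin multiplied by bin number.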

Row | Variant | protein stability index
1 | CTATGSVLEDNIIVSEVQFVESSG | 3.21
2 | CTAKGSVLEDNIIVSEVQFVESSG | 4.04
3 | CTAPGSVLEDNIIVSEVQFVESSG | 2.68
4 | CTAHGSVLEDNIIVSEVQFVESSG | 4.04
5 | CTASGSVLEDNIIVSEVQFVESSG | 3.5
6 | CTAIGSVLEDNIIVSEVQFVESSG | 3.35
7 | CTAEGSVLEDNIIVSEVQFVESSG | 4.21
8 | CTAFGSVLEDNIIVSEVQFVESSG | 2.78
9 | CTADGSVLEDNIIVSEVQFVESSG | 4.7
10 | CTAAGSVLEDNIIVSEVQFVESSG | 3.49
11 | CTALGSVLEDNIIVSEVQFVESSG | 3.15
12 | CTARGSVLEDNIIVSEVQFVESSG | 3.57
13 | CTAQGSVLEDNIIVSEVQFVESSG | 4.18
14 | CTAYGSVLEDNIIVSEVQFVESSG | 2.61
15 | CTAVGSVLEDNIIVSEVQFVESSG | 3.83
16 | CTAGGSVLEDNIIVSEVQFVESSG | 3.74
17 | CTANGSVLEDNIIVSEVQFVESSG | 4.37
18 | CTAMGSVLEDNIIVSEVQFVESSG | 3.88
19 | CTVCGSVLEDNIIVSEVQFVESSG | 3.22
20 | CTNCGSVLEDNIIVSEVQFVESSG | 4.03
21 | CTTCGSVLEDNIIVSEVQFVESSG | 3.07
22 | CTQCGSVLEDNIIVSEVQFVESSG | 3.88
23 | CTWCGSVLEDNIIVSEVQFVESSG | 3.08
24 | CTRCGSVLEDNIIVSEVQFVESSG | 2.9

Row | Variant | protein stability index
25 | CTYCGSVLEDNIIVSEVQFVESSG | 2.5
26 | CTPCGSVLEDNIIVSEVQFVESSG | 3.47
27 | CTSCGSVLEDNIIVSEVQFVESSG | 2.91
28 | CTACKSVLEDNIIVSEVQFVESSG | 3.33
29 | CTACHSVLEDNIIVSEVQFVESSG | 1.76
30 | CTACPSVLEDNIIVSEVQFVESSG | 3.67
31 | CTACMSVLEDNIIVSEVQFVESSG | 2.1
32 | CTACYSVLEDNIIVSEVQFVESSG | 1.76
33 | CTACQSVLEDNIIVSEVQFVESSG | 2.92
34 | CTACASVLEDNIIVSEVQFVESSG | 2.86
35 | CTACRSVLEDNIIVSEVQFVESSG | 2.4
36 | CTACESVLEDNIIVSEVQFVESSG | 3.21
37 | CTACISVLEDNIIVSEVQFVESSG | 2.76
38 | CTACFSVLEDNIIVSEVQFVESSG | 2.41
39 | CTACSSVLEDNIIVSEVQFVESSG | 3.17
40 | CTACVSVLEDNIIVSEVQFVESSG | 1.33
41 | CTACDSVLEDNIIVSEVQFVESSG | 3.62
42 | CTACNSVLEDNIIVSEVQFVESSG | 3.24
43 | CTACLSVLEDNIIVSEVQFVESSG | 1.75
44 | CTACTSVLEDNIIVSEVQFVESSG | 2.91
45 | CTACWSVLEDNIIVSEVQFVESSG | 2.27
46 | CTACCSVLEDNIIVSEVQFVESSG | 1.78
47 | CTACGSVLKDNIIVSEVQFVESSG | 3.55
48 | CTACGSVLGDNIIVSEVQFVESSG | 2.16

Row | Variant | protein stability index
49 | CTACGSVLRDNIIVSEVQFVESSG | 3.02
50 | CTACGSVLYDNIIVSEVQFVESSG | 2
51 | CTACGSVLIDNIIVSEVQFVESSG | 2.08
52 | CTACGSVLLDNIIVSEVQFVESSG | 2.24
53 | CTACGSVLQDNIIVSEVQFVESSG | 2.99
54 | CTACGSVLCDNIIVSEVQFVESSG | 2.31
55 | CTACGSVLMDNIIVSEVQFVESSG | 2.57
56 | CTACGSVLVDNIIVSEVQFVESSG | 2.26
57 | CTACGSVLWDNIIVSEVQFVESSG | 1.83
58 | CTACGSVLTDNIIVSEVQFVESSG | 2.55
59 | CTACGSVLHDNIIVSEVQFVESSG | 2.32
60 | CTACGSVLNDNIIVSEVQFVESSG | 2.85
61 | CTACGSVLADNIIVSEVQFVESSG | 3.03
62 | CTACGSVLPDNIIVSEVQFVESSG | 3.75
63 | CTACGSVLSDNIIVSEVQFVESSG | 2.85
64 | CTACGSVLFDNIIVSEVQFVESSG | 2.67
65 | CTACGSVLDDNIIVSEVQFVESSG | 3.55
66 | CTACGGVLEDNIIVSEVQFVESSG | 3.35
67 | CTACGRVLEDNIIVSEVQFVESSG | 2.51
68 | CTACGDVLEDNIIVSEVQFVESSG | 2.94
69 | CTACGHVLEDNIIVSEVQFVESSG | 4.15
70 | CTACGFVLEDNIIVSEVQFVESSG | 1.24
71 | CTACGVVLEDNIIVSEVQFVESSG | 2.22
72 | CTACGYVLEDNIIVSEVQFVESSG | 1.59

Row | Variant | protein stability index
73 | CTACGPVLEDNIIVSEVQFVESSG | 2.79
74 | CTACGAVLEDNIIVSEVQFVESSG | 2.73
75 | CTACGQVLEDNIIVSEVQFVESSG | 2.44
76 | CTACGKVLEDNIIVSEVQFVESSG | 3.06
77 | CTACGIVLEDNIIVSEVQFVESSG | 1.27
78 | CTACGNVLEDNIIVSEVQFVESSG | 2.5
79 | CTACGCVLEDNIIVSEVQFVESSG | 2.38
80 | CTACGEVLEDNIIVSEVQFVESSG | 2.2
81 | CTACGTVLEDNIIVSEVQFVESSG | 3.38
82 | CTACGMVLEDNIIVSEVQFVESSG | 1.82
83 | CTACGLVLEDNIIVSEVQFVESSG | 1.39
84 | CTACGSVLEDSIIVSEVQFVESSG | 2.42
85 | CTACGSVLEDDIIVSEVQFVESSG | 2.84
86 | CTACGSVLEDWIIVSEVQFVESSG | 1.01
87 | CTACGSVLEDIIIVSEVQFVESSG | 1.14
88 | CTACGSVLEDQIIVSEVQFVESSG | 2.6
89 | CTACGSVLEDMIIVSEVQFVESSG | 1.05
90 | CTACGSVLEDAIIVSEVQFVESSG | 1.54
91 | CTACGSVLEDEIIVSEVQFVESSG | 2.19
92 | CTACGSVLEDTIIVSEVQFVESSG | 2.44
93 | CTACGSVLEDVIIVSEVQFVESSG | 1.96
94 | CTACGSVLEDPIIVSEVQFVESSG | 2.91
95 | CTACGSVLEDLIIVSEVQFVESSG | 2.98
96 | CTACGSVLEDHIIVSEVQFVESSG | 2.12

Row | Variant | protein stability index
97 | CTACGSVLEDKIIVSEVQFVESSG | 4.01
98 | CTACGSVLEDCIIVSEVQFVESSG | 1.74
99 | CTACGSVLEDFIIVSEVQFVESSG | 1.89
100 | CTACGSVLEDGIIVSEVQFVESSG | 2.96
101 | CTACGSVLEDYIIVSEVQFVESSG | 2.06
102 | CTACGSVHEDNIIVSEVQFVESSG | 3.32
103 | CTACGSVAEDNIIVSEVQFVESSG | 2.9
104 | CTACGSVWEDNIIVSEVQFVESSG | 1.89
105 | CTACGSVNEDNIIVSEVQFVESSG | 4.42
106 | CTACGSVPEDNIIVSEVQFVESSG | 3.9
107 | CTACGSVDEDNIIVSEVQFVESSG | 3.65
108 | CTACGSVVEDNIIVSEVQFVESSG | 3.24
109 | CTACGSVFEDNIIVSEVQFVESSG | 2.37
110 | CTACGSVQEDNIIVSEVQFVESSG | 3.63
111 | CTACGSVMEDNIIVSEVQFVESSG | 3.79
112 | CTACGSVKEDNIIVSEVQFVESSG | 3.54
113 | CTACGSVTEDNIIVSEVQFVESSG | 4.19
114 | CTACGSVIEDNIIVSEVQFVESSG | 3.44
115 | CTACGSVEEDNIIVSEVQFVESSG | 3.68
116 | CTACGSVSEDNIIVSEVQFVESSG | 3.06
117 | CTACGSVYEDNIIVSEVQFVESSG | 2.93
118 | CTACGSVCEDNIIVSEVQFVESSG | 3.29
119 | CTACGSVGEDNIIVSEVQFVESSG | 3.39
120 | CTACGSVREDNIIVSEVQFVESSG | 3.03

Row | Variant | protein stability index
121 | CTACGSVLEDNINVSEVQFVESSG | 3.79
122 | CTACGSVLEDNIRVSEVQFVESSG | 3.92
123 | CTACGSVLEDNIKVSEVQFVESSG | 3.89
124 | CTACGSVLEDNILVSEVQFVESSG | 2.79
125 | CTACGSVLEDNICVSEVQFVESSG | 4.75
126 | CTACGSVLEDNIPVSEVQFVESSG | 4.25
127 | CTACGSVLEDNIHVSEVQFVESSG | 3.84
128 | CTACGSVLEDNIEVSEVQFVESSG | 4.11
129 | CTACGSVLEDNIGVSEVQFVESSG | 3.61
130 | CTACGSVLEDNIDVSEVQFVESSG | 3.13
131 | CTACGSVLEDNIAVSEVQFVESSG | 3.96
132 | CTACGSVLEDNIQVSEVQFVESSG | 4.01
133 | CTACGSVLEDNIFVSEVQFVESSG | 3.08
134 | CTACGSVLEDNIMVSEVQFVESSG | 3.97
135 | CTACGSSLEDNIIVSEVQFVESSG | 2.85
136 | CTACGSDLEDNIIVSEVQFVESSG | 3.44
137 | CTACGSMLEDNIIVSEVQFVESSG | 2.72
138 | CTACGSYLEDNIIVSEVQFVESSG | 2.37
139 | CTACGSELEDNIIVSEVQFVESSG | 4.17
140 | CTACGSLLEDNIIVSEVQFVESSG | 2.51
141 | CTACGSQLEDNIIVSEVQFVESSG | 2.96
142 | CTACGSILEDNIIVSEVQFVESSG | 2.56
143 | CTACGSTLEDNIIVSEVQFVESSG | 3.86
144 | CTACGSWLEDNIIVSEVQFVESSG | 2.53

Row | Variant | protein stability index
145 | CTACGSALEDNIIVSEVQFVESSG | 3.8
146 | CTACGSRLEDNIIVSEVQFVESSG | 3.22
147 | CTACGSFLEDNIIVSEVQFVESSG | 2.33
148 | CTACGSKLEDNIIVSEVQFVESSG | 4.22
149 | CTACGSGLEDNIIVSEVQFVESSG | 2.8
150 | CTACGSPLEDNIIVSEVQFVESSG | 3.64
151 | CTACGSCLEDNIIVSEVQFVESSG | 2.64
152 | CTACGSNLEDNIIVSEVQFVESSG | 2.94
153 | CTACGSHLEDNIIVSEVQFVESSG | 2.58
154 | CTACGSVLEHNIIVSEVQFVESSG | 2.67
155 | CTACGSVLEWNIIVSEVQFVESSG | 1.22
156 | CTACGSVLEMNIIVSEVQFVESSG | 2.94
157 | CTACGSVLEYNIIVSEVQFVESSG | 2.24
158 | CTACGSVLEANIIVSEVQFVESSG | 2.41
159 | CTACGSVLENNIIVSEVQFVESSG | 2.55
160 | CTACGSVLETNIIVSEVQFVESSG | 1.79
161 | CTACGSVLEKNIIVSEVQFVESSG | 3.43
162 | CTACGSVLERNIIVSEVQFVESSG | 3.89
163 | CTACGSVLEPNIIVSEVQFVESSG | 3.44
164 | CTACGSVLESNIIVSEVQFVESSG | 1.34
165 | CTACGSVLEQNIIVSEVQFVESSG | 2.14
166 | CTACGSVLEINIIVSEVQFVESSG | 3.2
167 | CTACGSVLEGNIIVSEVQFVESSG | 1.84
168 | CTACGSVLELNIIVSEVQFVESSG | 3.29

Row | Variant | protein stability index
169 | CTACGSVLEENIIVSEVQFVESSG | 3.38
170 | CTACGSVLEDNDIVSEVQFVESSG | 3.08
171 | CTACGSVLEDNTIVSEVQFVESSG | 3.88
172 | CTACGSVLEDNEIVSEVQFVESSG | 4
173 | CTACGSVLEDNCIVSEVQFVESSG | 3.53
174 | CTACGSVLEDNNIVSEVQFVESSG | 4.8
175 | CTACGSVLEDNKIVSEVQFVESSG | 4.16
176 | CTACGSVLEDNSIVSEVQFVESSG | 3.95
177 | CTACGSVLEDNHIVSEVQFVESSG | 3.41
178 | CTACGSVLEDNMIVSEVQFVESSG | 3.13
179 | CTACGSVLEDNFIVSEVQFVESSG | 2.23
180 | CTACGSVLEDNRIVSEVQFVESSG | 4.29
181 | CTACGSVLEDNYIVSEVQFVESSG | 3.15
182 | CTACGSVLEDNGIVSEVQFVESSG | 3.73
183 | CTACGSVLEDNPIVSEVQFVESSG | 3.55
184 | CTACGSVLEDNVIVSEVQFVESSG | 2.99
185 | CTACGSVLEDNQIVSEVQFVESSG | 4.35
186 | CTACGSVLEDNWIVSEVQFVESSG | 2.39
187 | CTACGSVLEDNAIVSEVQFVESSG | 3.77
188 | CTACGSVLEDNLIVSEVQFVESSG | 3.06
